The assay has as its target T1, FLAG-S1P_(ecto)-His10, matured C-form (human, UniProt Q14703 187-998).
T1 construct: human S1P (MBTPS1); expressed as IgK leader-FLAG-residues 23-998-His10; after autoproteolysis the His10-bearing C-form; The N-terminal FLAG tag leaves with the A-domain; also called WT S1P_(ecto); C-form of S1P_(ecto); source: HEK 293S GnTI- (BacMam baculovirus), secreted, purified (NiNTA, gel filtration); HEK 293T, transfected, secreted, in supernatant; not shown: His10, C-terminal, kept
T1 sequence (looked up): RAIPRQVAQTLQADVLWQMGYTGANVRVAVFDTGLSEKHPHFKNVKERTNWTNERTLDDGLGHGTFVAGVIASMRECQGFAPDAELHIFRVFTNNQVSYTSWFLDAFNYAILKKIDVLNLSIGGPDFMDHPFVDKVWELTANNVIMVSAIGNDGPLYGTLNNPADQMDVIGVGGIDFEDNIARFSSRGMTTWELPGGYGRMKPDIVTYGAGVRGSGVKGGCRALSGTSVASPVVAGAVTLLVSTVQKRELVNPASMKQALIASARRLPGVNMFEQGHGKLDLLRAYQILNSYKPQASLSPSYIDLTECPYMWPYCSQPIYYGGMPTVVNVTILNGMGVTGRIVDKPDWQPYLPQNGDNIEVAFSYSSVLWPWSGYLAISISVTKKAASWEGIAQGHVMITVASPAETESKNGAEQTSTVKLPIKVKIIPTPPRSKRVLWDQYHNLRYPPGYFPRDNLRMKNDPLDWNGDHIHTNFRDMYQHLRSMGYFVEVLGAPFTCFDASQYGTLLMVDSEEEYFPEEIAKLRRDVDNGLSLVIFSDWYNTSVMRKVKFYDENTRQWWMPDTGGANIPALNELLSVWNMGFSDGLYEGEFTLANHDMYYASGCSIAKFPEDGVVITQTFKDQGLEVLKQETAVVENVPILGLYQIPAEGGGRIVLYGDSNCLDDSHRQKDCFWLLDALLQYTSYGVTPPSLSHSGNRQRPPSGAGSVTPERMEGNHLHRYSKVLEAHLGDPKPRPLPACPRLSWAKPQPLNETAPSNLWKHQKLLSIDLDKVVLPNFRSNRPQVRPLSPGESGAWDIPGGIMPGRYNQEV
As to the kind of experiment: pull-down; HEK 293T supernatants of co-transfected cells with 50 mM imidazole; NiNTA resin holds the His10 tag of S1P_(ecto), 1-2 h at 4 °C; washes in 150 mM NaCl, 50 mM HEPES-NaOH pH 7.5, 50 mM imidazole; elution with 300 mM imidazole; immunoblot anti-HA, anti-His, anti-FLAG. To be noted: partners not purified.

B1: cleaved A-domain of FLAG-S1P_(ecto)-His10 (domain or fragment, human, UniProt Q14703 23-137, looked up)
chain: DRLEKKSFEKAPCPGCSHLTLKVEFSSTVVEYEYIVAFNGYFTAKARNSFISSALKSSEVDNWRIIPRNNPSSDYPSDFEVIQIKEKQKAGLLTLEDHPNIKRVTPQRKVFRSLK
notes: human S1P (MBTPS1) A pro-domain, released by autoproteolysis from the construct FLAG-residues 23-998-His10; the construct begins at residue 23; in the cryo-EM map the density ends after K137 (cleavage at the B site); cleavage at the alternative B' site is possible too; also called A pro-domain; S1P A-domain; source: HEK 293S GnTI- (BacMam baculovirus), secreted, co-purified with S1P_(ecto) …
Consider B1, for which the binding result is given as “binds”.

These data come from PMC11231238, “SPRING licenses S1P-mediated cleavage of SREBP2 by displacing an inhibitory pro-domain” (Nature Communications, 2024).
